Reference: US20260015399A1 (Boehringer Ingelheim, published 2026)
*1 amine or outer side, *2 acyl side, *3 side chain or, on linkers, in order; H or OH if unused. Side-chain parts run from the residue outwards. The star is where a group is joined. C18 diacid = O=C(O)CCCCCCCCCCCCCCCCC(=O)*; γGlu = O=C(O)[C@H](CCC(=O)[*:2])N[*:1]; Isovaleryl = CC(C)CC(=O)*; Ahx = NCCCCCC(=O)O

Target: T1, human NPY2 receptor (human, UniProt P49146 1-381)
T1 construct: whole, on cells; also called hNPY2-R; hNPY2R
T1 sequence (looked up): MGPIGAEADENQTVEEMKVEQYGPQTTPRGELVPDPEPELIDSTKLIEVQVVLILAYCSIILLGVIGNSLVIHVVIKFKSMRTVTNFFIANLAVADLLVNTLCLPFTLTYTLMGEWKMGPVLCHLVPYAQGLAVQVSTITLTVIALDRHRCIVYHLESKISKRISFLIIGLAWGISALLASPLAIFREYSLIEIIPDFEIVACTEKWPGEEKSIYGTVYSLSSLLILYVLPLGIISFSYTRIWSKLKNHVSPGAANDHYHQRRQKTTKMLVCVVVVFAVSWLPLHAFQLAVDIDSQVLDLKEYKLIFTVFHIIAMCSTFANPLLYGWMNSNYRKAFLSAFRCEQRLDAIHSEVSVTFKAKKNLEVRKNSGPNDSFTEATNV
Assay: RLB: displacement of 125I-PYY(1-36) from hNPY2R membranes
Description: The filtration RLB assay was carried out in 96-well plates in a final volume of 100 μl per well. Freeze-dried test peptides were dissolved in 100% dimethyl sulfoxide (DMSO) to stock solutions of 1 mM and serial dilutions were performed in assay buffer (50 mM HEPES, 5 mM MgCl₂, 1 mM CaCl₂), pH 7.4) containing 0.2% ovalbumin. […] Next, 80 μL membranes (HTS066M, ChemiSCREEN™ Human Neuropeptide Y2 Receptor Membrane Preparation, CHEMICON) were added to each well to give a final protein concentration of 0.5 μg/well. The plates were sealed and incubated at room temperature for 2 hours in a plate shaker set at 400 rpm. The incubation was stopped by vacuum filtration onto 0.5% polyethylene amine (PEI) presoaked GF/C filters using a 96-well FilterMate™ harvester (Perkin Elmer) followed by four washes with 300 μl/well ice-cold wash buffer (50 mM HEPES, 500 mM NaCl, pH7.4). Filter plates were then dried for 60 min at room temperature and the bottom of the plates was sealed with backing tape UniFilter-96. Finally, 50 μl/well scintillation counter cocktail (Microscint20, Packard) was added and the radioactivity was counted in the Packard TopCount NXT scintillation counter. IC₅₀ values (the half maximal inhibitory concentration of the agonist) were calculated by nonlinear regression analysis of sigmoidal dose-response curves.

Binder | Ki
Isovaleryl-APEK([Ahx-γGlu-C18 diacid])PEEDPTPEELQRYYVSLRHYYNWLTRQRY-NH2 (SMILES CC(C)CC(=O)N[C@@H](C)C(=O)N1CCC[C@H]1C(=O)N[C@@H](CCC(=O)O)C(=O)N[C@@H](CCCCNC(=O)CCCCCNC(=O)CC[C@H](NC(=O)CCCCCCCCCCCCCCCCC(=O)O)C(=O)O)C(=O)N1CCC[C@H]1C(=O)N[C@@H](CCC(=O)O)C(=O)N[C@@H](CCC(=O)O)C(=O)N[C@@H](CC(=O)O)C(=O)N1CCC[C@H]1C(=O)N[C@H](C(=O)N1CCC[C@H]1C(=O)N[C@@H](CCC(=O)O)C(=O)N[C@@H](CCC(=O)O)C(=O)N[C@@H](CC(C)C)C(=O)N[C@@H](CCC(N)=O)C(=O)N[C@@H](CCCNC(=N)N)C(=O)N[C@@H](Cc1ccc(O)cc1)C(=O)N[C@@H](Cc1ccc(O)cc1)C(=O)N[C@H](C(=O)N[C@@H](CO)C(=O)N[C@@H](CC(C)C)C(=O)N[C@@H](CCCNC(=N)N)C(=O)N[C@@H](Cc1c[nH]cn1)C(=O)N[C@@H](Cc1ccc(O)cc1)C(=O)N[C@@H](Cc1ccc(O)cc1)C(=O)N[C@@H](CC(N)=O)C(=O)N[C@@H](Cc1c[nH]c2ccccc12)C(=O)N[C@@H](CC(C)C)C(=O)N[C@H](C(=O)N[C@@H](CCCNC(=N)N)C(=O)N[C@@H](CCC(N)=O)C(=O)N[C@@H](CCCNC(=N)N)C(=O)N[C@@H](Cc1ccc(O)cc1)C(N)=O)[C@@H](C)O)C(C)C)[C@@H](C)O) [Compound 22] | 4.98 nM
Isovaleryl-APEK([Ahx-γGlu-C18 diacid])PEEDSSPEELQRYYVALRHYYNWLTRQRY-NH2 (SMILES CC(C)CC(=O)N[C@@H](C)C(=O)N1CCC[C@H]1C(=O)N[C@@H](CCC(=O)O)C(=O)N[C@@H](CCCCNC(=O)CCCCCNC(=O)CC[C@H](NC(=O)CCCCCCCCCCCCCCCCC(=O)O)C(=O)O)C(=O)N1CCC[C@H]1C(=O)N[C@@H](CCC(=O)O)C(=O)N[C@@H](CCC(=O)O)C(=O)N[C@@H](CC(=O)O)C(=O)N[C@@H](CO)C(=O)N[C@@H](CO)C(=O)N1CCC[C@H]1C(=O)N[C@@H](CCC(=O)O)C(=O)N[C@@H](CCC(=O)O)C(=O)N[C@@H](CC(C)C)C(=O)N[C@@H](CCC(N)=O)C(=O)N[C@@H](CCCNC(=N)N)C(=O)N[C@@H](Cc1ccc(O)cc1)C(=O)N[C@@H](Cc1ccc(O)cc1)C(=O)N[C@H](C(=O)N[C@@H](C)C(=O)N[C@@H](CC(C)C)C(=O)N[C@@H](CCCNC(=N)N)C(=O)N[C@@H](Cc1c[nH]cn1)C(=O)N[C@@H](Cc1ccc(O)cc1)C(=O)N[C@@H](Cc1ccc(O)cc1)C(=O)N[C@@H](CC(N)=O)C(=O)N[C@@H](Cc1c[nH]c2ccccc12)C(=O)N[C@@H](CC(C)C)C(=O)N[C@H](C(=O)N[C@@H](CCCNC(=N)N)C(=O)N[C@@H](CCC(N)=O)C(=O)N[C@@H](CCCNC(=N)N)C(=O)N[C@@H](Cc1ccc(O)cc1)C(N)=O)[C@@H](C)O)C(C)C) [Compound 24] | 3.39 nM
Isovaleryl-APEK([Ahx-γGlu-C18 diacid])PEEDAEPEESQRYYVSLRHYYNWLTRQRY-NH2 (SMILES CC(C)CC(=O)N[C@@H](C)C(=O)N1CCC[C@H]1C(=O)N[C@@H](CCC(=O)O)C(=O)N[C@@H](CCCCNC(=O)CCCCCNC(=O)CC[C@H](NC(=O)CCCCCCCCCCCCCCCCC(=O)O)C(=O)O)C(=O)N1CCC[C@H]1C(=O)N[C@@H](CCC(=O)O)C(=O)N[C@@H](CCC(=O)O)C(=O)N[C@@H](CC(=O)O)C(=O)N[C@@H](C)C(=O)N[C@@H](CCC(=O)O)C(=O)N1CCC[C@H]1C(=O)N[C@@H](CCC(=O)O)C(=O)N[C@@H](CCC(=O)O)C(=O)N[C@@H](CO)C(=O)N[C@@H](CCC(N)=O)C(=O)N[C@@H](CCCNC(=N)N)C(=O)N[C@@H](Cc1ccc(O)cc1)C(=O)N[C@@H](Cc1ccc(O)cc1)C(=O)N[C@H](C(=O)N[C@@H](CO)C(=O)N[C@@H](CC(C)C)C(=O)N[C@@H](CCCNC(=N)N)C(=O)N[C@@H](Cc1c[nH]cn1)C(=O)N[C@@H](Cc1ccc(O)cc1)C(=O)N[C@@H](Cc1ccc(O)cc1)C(=O)N[C@@H](CC(N)=O)C(=O)N[C@@H](Cc1c[nH]c2ccccc12)C(=O)N[C@@H](CC(C)C)C(=O)N[C@H](C(=O)N[C@@H](CCCNC(=N)N)C(=O)N[C@@H](CCC(N)=O)C(=O)N[C@@H](CCCNC(=N)N)C(=O)N[C@@H](Cc1ccc(O)cc1)C(N)=O)[C@@H](C)O)C(C)C) [Compound 27] | 10.5 nM
Isovaleryl-APEK([Ahx-γGlu-C18 diacid])PPEDATPEEIQRYYVSLRHYYNWLTRQRY-NH2 (SMILES CC[C@H](C)[C@H](NC(=O)[C@H](CCC(=O)O)NC(=O)[C@H](CCC(=O)O)NC(=O)[C@@H]1CCCN1C(=O)[C@@H](NC(=O)[C@H](C)NC(=O)[C@H](CC(=O)O)NC(=O)[C@H](CCC(=O)O)NC(=O)[C@@H]1CCCN1C(=O)[C@@H]1CCCN1C(=O)[C@H](CCCCNC(=O)CCCCCNC(=O)CC[C@H](NC(=O)CCCCCCCCCCCCCCCCC(=O)O)C(=O)O)NC(=O)[C@H](CCC(=O)O)NC(=O)[C@@H]1CCCN1C(=O)[C@H](C)NC(=O)CC(C)C)[C@@H](C)O)C(=O)N[C@@H](CCC(N)=O)C(=O)N[C@@H](CCCNC(=N)N)C(=O)N[C@@H](Cc1ccc(O)cc1)C(=O)N[C@@H](Cc1ccc(O)cc1)C(=O)N[C@H](C(=O)N[C@@H](CO)C(=O)N[C@@H](CC(C)C)C(=O)N[C@@H](CCCNC(=N)N)C(=O)N[C@@H](Cc1c[nH]cn1)C(=O)N[C@@H](Cc1ccc(O)cc1)C(=O)N[C@@H](Cc1ccc(O)cc1)C(=O)N[C@@H](CC(N)=O)C(=O)N[C@@H](Cc1c[nH]c2ccccc12)C(=O)N[C@@H](CC(C)C)C(=O)N[C@H](C(=O)N[C@@H](CCCNC(=N)N)C(=O)N[C@@H](CCC(N)=O)C(=O)N[C@@H](CCCNC(=N)N)C(=O)N[C@@H](Cc1ccc(O)cc1)C(N)=O)[C@@H](C)O)C(C)C) [Compound 28] | 0.49 nM
Isovaleryl-APEK([Ahx-γGlu-C18 diacid])PEADATPEELQRYYISLRHYYNWLTRQRY-NH2 (SMILES CC[C@H](C)[C@H](NC(=O)[C@H](Cc1ccc(O)cc1)NC(=O)[C@H](Cc1ccc(O)cc1)NC(=O)[C@H](CCCNC(=N)N)NC(=O)[C@H](CCC(N)=O)NC(=O)[C@H](CC(C)C)NC(=O)[C@H](CCC(=O)O)NC(=O)[C@H](CCC(=O)O)NC(=O)[C@@H]1CCCN1C(=O)[C@@H](NC(=O)[C@H](C)NC(=O)[C@H](CC(=O)O)NC(=O)[C@H](C)NC(=O)[C@H](CCC(=O)O)NC(=O)[C@@H]1CCCN1C(=O)[C@H](CCCCNC(=O)CCCCCNC(=O)CC[C@H](NC(=O)CCCCCCCCCCCCCCCCC(=O)O)C(=O)O)NC(=O)[C@H](CCC(=O)O)NC(=O)[C@@H]1CCCN1C(=O)[C@H](C)NC(=O)CC(C)C)[C@@H](C)O)C(=O)N[C@@H](CO)C(=O)N[C@@H](CC(C)C)C(=O)N[C@@H](CCCNC(=N)N)C(=O)N[C@@H](Cc1c[nH]cn1)C(=O)N[C@@H](Cc1ccc(O)cc1)C(=O)N[C@@H](Cc1ccc(O)cc1)C(=O)N[C@@H](CC(N)=O)C(=O)N[C@@H](Cc1c[nH]c2ccccc12)C(=O)N[C@@H](CC(C)C)C(=O)N[C@H](C(=O)N[C@@H](CCCNC(=N)N)C(=O)N[C@@H](CCC(N)=O)C(=O)N[C@@H](CCCNC(=N)N)C(=O)N[C@@H](Cc1ccc(O)cc1)C(N)=O)[C@@H](C)O) [Compound 25] | 1.55 nM
